In patent US20190275101:

Biological target: T1, Fluorogenic peptide Glu(EDANS)-GDYELQGPEDLA-Lys(Dabcyl), p48/p41 cleavage site of the HOV polyprotein
T1 chain: EGDYELQGPEDLAK

Protein	FRET proteolytic activity at pH 8, 6.5 and 5	kcat/Km, FRET assay at pH 8	FRET proteolytic activity at pH 6.5
Houston virus protease (HOV Pro), GII.4 norovirus protease, wild-type (protein) APPSIWSRIVNFGSGWGFWVSPSLFITSTHVIPQGAKEFFGVPIKQIQVHKSGEFCRLRFPKPIRTDVTGMILEEGAPEGTVVTLLIKRSTGELMPLAARMGTHATMKIQGRTVGGQMGMLLTGSNAKSMDLGTTPGDCGCPYIYKRGNDYVVIGVHTAAARGGNTVICATQGSEGEATLE	while HOV Pro was active at pH 8, it showed no activity at pH 6.5 and pH 5	kcat/Km=843.7 M^-1s^-1	
HOV Pro R112A mutant (protein) APPSIWSRIVNFGSGWGFWVSPSLFITSTHVIPQGAKEFFGVPIKQIQVHKSGEFCRLRFPKPIRTDVTGMILEEGAPEGTVVTLLIKRSTGELMPLAARMGTHATMKIQGATVGGQMGMLLTGSNAKSMDLGTTPGDCGCPYIYKRGNDYVVIGVHTAAARGGNTVICATQGSEGEATLE		kcat/Km=1215 M^-1s^-1	Unlike the wild-type HOV Pro, R112A mutant was active at pH 6.5
